Results: patent US20110117110A1 (FACET BIOTECH, published 2011)

Experiments:
[1] = molecular target: T1, EGFR on A431 cells (human, UniProt P00533 25-1210); test: FACS competition on A431 cells: unlabelled antibody against biotinylated cetuximab (0.5 µg/mL), streptavidin-RPE detection; column Average of Trials 1-3, column SD prints 0.4
T1 construct: whole, on cells; also called epidermal growth factor receptor; ErbB-1
Procedure: (§1) A431 cells were grown to 2×10⁵ cells per well of V-bottom 96-well plates. Cells were washed with FACS staining buffer (FSB). […] The plates were then incubated on ice for 1 hour, and then washed twice with FSB. […] Cells were washed two times with FSB, and stained cells were resuspended with 200 μL of fixing buffer (1% paraformaldehyde). Samples were read using a flow cytometer.

[2] = molecular target: T1, EGFR on A431 cells; test: FACS competition on A431 cells: unlabelled antibody against biotinylated cetuximab (0.5 µg/mL), streptavidin-RPE detection; Trial 3
Procedure: as §1

[3] = molecular target: T1, EGFR on A431 cells; test: FACS competition on A431 cells: unlabelled antibody against biotinylated cetuximab (0.5 µg/mL), streptavidin-RPE detection; Trial 1
Procedure: as §1

[4] = molecular target: T1, EGFR on A431 cells; test: FACS competition on A431 cells against biotinylated cetuximab; panel FACS Competition (3)
Procedure: as §1

[5] = molecular target: T1, EGFR on A431 cells; test: FACS competition on A431 cells against biotinylated cetuximab; panel FACS Competition (2)
Procedure: as §1

[6] = molecular target: T1, EGFR on A431 cells; test: FACS competition on A431 cells: unlabelled antibody against biotinylated cetuximab (0.5 µg/mL), streptavidin-RPE detection; Trial 2
Procedure: as §1

B1: hu225 (antibody, V domains shown)
VH: EVQLVESGGGLVQPGGSLRLSCAASGFSLTNYGVHWVRQAPGKGLEWLGVIWSGGNTDYNTPFTSRLTINKDNSKNTVYLQMNSLRAEDTAVYYCARALTYYDYEFAYWGQGTLVTVSS
VL: DILLTQSPGTLSLSPGERATLSCRASQSIGTNIHWYQQKPGQAPRLLIKYASESISGIPDRFSGSGSGTDFTLTISRLEPEDFAVYYCQQNNNWPTTFGQGTKLEIKR
notes: also called humanized version of MAb225; humanized cetuximab
IC50 [1]: 1.79 µg/mL
IC50 [2]: 2.62 µg/mL
IC50 [3]: 1.71 µg/mL
IC50 (read off the curve) [4]: ~3 µg/mL
IC50 (read off the curve) [5]: ~1 µg/mL
IC50 [6]: 1.06 µg/mL
